# Laboratory results taken from publication PMC9898751.
# Tests used:
# [1] = target: PHF2(1–451), N-terminal half of human PHF2 with the PHD and Jumonji domains (residues 1–451) (human) (UniProt O75151); assay: ITC
# [2] = target: PHF2(1–70), PHD domain of human PHF2 (residues 1–70) (human) (UniProt O75151); assay: ITC
# PHF2(1–70), PHD domain of human PHF2 (residues 1–70) (human), sequence (O75151 1-70): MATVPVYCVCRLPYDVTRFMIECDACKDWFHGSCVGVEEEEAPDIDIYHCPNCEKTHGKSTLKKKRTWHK
# PHF2(1–451), N-terminal half of human PHF2 with the PHD and Jumonji domains (residues 1–451) (human), sequence (O75151 1-451): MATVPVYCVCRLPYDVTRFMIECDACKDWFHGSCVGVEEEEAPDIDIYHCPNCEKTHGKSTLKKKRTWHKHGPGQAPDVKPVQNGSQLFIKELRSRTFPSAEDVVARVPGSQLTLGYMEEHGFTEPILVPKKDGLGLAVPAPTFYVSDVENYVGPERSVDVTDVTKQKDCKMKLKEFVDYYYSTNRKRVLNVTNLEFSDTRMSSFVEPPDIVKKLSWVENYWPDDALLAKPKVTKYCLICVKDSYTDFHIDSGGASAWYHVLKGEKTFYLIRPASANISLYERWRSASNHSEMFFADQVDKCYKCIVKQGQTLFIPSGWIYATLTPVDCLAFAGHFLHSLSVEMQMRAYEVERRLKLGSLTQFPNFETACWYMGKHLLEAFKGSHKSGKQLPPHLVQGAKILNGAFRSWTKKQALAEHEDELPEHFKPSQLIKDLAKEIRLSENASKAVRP
substance,measurement,setting,value
"VRK1(1-12)K4me3 peptide (12-mer of the N-terminus of vaccinia-related kinase 1, trimethylated at lysine 4)",Kd,[1],42 nM
same,Kd,[2],900 nM
